Results as given in the supplement of paper PMC10567573.
± gives the standard deviation.

Assay: protein stability index of a GFP-peptide fusion (GPS, HEK-293T) (PSI 1-6); higher = more stable
Settings: c terminus: a fixed tail appended
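Further: 24-mer peptide tiles fused after GFP, lentivirally expressed, FACS-sorted into six equal bins by GFP/DsRed ratio, decoded by Illumina sequencing, PSI is the read-weighted mean bin number.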

EKYGAVREVILKELAEATWCGIST [ZBED1]
protein stability index (treatment: DMSO): 2.97 ± 0.36
protein stability index (treatment: MLN4924 1 uM, 8 h): 2.68 ± 0.35

FRPKDQTSVGMSFVAGGISGTVAA [SLC25A39]
protein stability index (treatment: DMSO): 3 ± 0.11
protein stability index (treatment: MLN4924 1 uM, 8 h): 2.96 ± 0.29

ADAAEDEEVDVTSVDPIAAFCSSD [RBBP5]
protein stability index (treatment: DMSO): 5.57 ± 0.2
protein stability index (treatment: MLN4924 1 uM, 8 h): 5.55 ± 0.2

RFEEPKGPPARQEDSKELRALRKM [CBY2]
protein stability index (treatment: DMSO): 4.91 ± 0.43
protein stability index (treatment: MLN4924 1 uM, 8 h): 4.99 ± 0.2

KDLVMYSKCQRLFRSPSMPCSVIR [CDC25B]
protein stability index (treatment: DMSO): 2.2 ± 0.18
protein stability index (treatment: MLN4924 1 uM, 8 h): 2.73 ± 0.34

TSYTRQACLVSCFQQLMVETCSCG [SCNN1D]
protein stability index (treatment: DMSO): 2.48 ± 0.53
protein stability index (treatment: MLN4924 1 uM, 8 h): 2.31 ± 0.27

VMKLEISPHRKRSDDSDEDEPCAI [DLC1]
protein stability index (treatment: DMSO): 5.21 ± 0.52
protein stability index (treatment: MLN4924 1 uM, 8 h): 4.93 ± 0.28

TCVVPFDSEEEVIERANNVKYGLA [ALDH8A1]
protein stability index (treatment: DMSO): 4.29 ± 0.33
protein stability index (treatment: MLN4924 1 uM, 8 h): 4.41 ± 0.23

ATGPMGMRGFKGDRGPKGEKGEKG [SCARA5]
protein stability index (treatment: DMSO): 5.22 ± 0.24
protein stability index (treatment: MLN4924 1 uM, 8 h): 5.43 ± 0.34

QVLIKHSADVNARDKNWQTPLHVA [ANKRD44]
protein stability index (treatment: DMSO): 3.15 ± 0.34
protein stability index (treatment: MLN4924 1 uM, 8 h): 3.01 ± 0.32

SYSRLCRESGAEPQEAVLQQLHQL [LRRC45]
protein stability index (treatment: DMSO): 3.71 ± 0.29
protein stability index (treatment: MLN4924 1 uM, 8 h): 3.71 ± 0.19

PSWNGSLKQLLTETDVWFSKQRKD [GMCL1]
protein stability index (treatment: DMSO): 3.27 ± 0.049
protein stability index (treatment: MLN4924 1 uM, 8 h): 3.29 ± 0.43

SILNSCEDPVPGMLFFLPPGQHLS [FBXO34]
protein stability index (treatment: DMSO): 2.46 ± 0.2
protein stability index (treatment: MLN4924 1 uM, 8 h): 2.41 ± 0.22

STRWEVIAEDGTKEIESQGSIPGF [TAF7L]
protein stability index (treatment: DMSO): 4.58 ± 0.067
protein stability index (treatment: MLN4924 1 uM, 8 h): 4.54 ± 0.3

DENREVLQTLLYFLSDVTAAVKEN [DLC1]
protein stability index (treatment: DMSO): 2.14 ± 0.28
protein stability index (treatment: MLN4924 1 uM, 8 h): 2.33 ± 0.19

FLQYYYQSGCLYRLRALGERHTMD [TMEM120A]
protein stability index (treatment: DMSO): 2.46 ± 0.47
protein stability index (treatment: MLN4924 1 uM, 8 h): 2.35 ± 0.38

VLGGFLYAVGGSDGTSPLNTVERY [KLHL20]
protein stability index (treatment: DMSO): 2.18 ± 0.32
protein stability index (treatment: MLN4924 1 uM, 8 h): 2.47 ± 0.22

KNNLSFIETSALDSTNVEEAFKNI [RAB11B]
protein stability index (treatment: DMSO): 4.33 ± 0.2
protein stability index (treatment: MLN4924 1 uM, 8 h): 4.33 ± 0.3

LRTHIDAIILALPEDLQGILLKTG [DENND6A]
protein stability index (treatment: DMSO): 2.17 ± 0.31
protein stability index (treatment: MLN4924 1 uM, 8 h): 2.4 ± 0.084

PGPGGTMKRHSSRDAAGKPQRPRS [FCHO1]
protein stability index (treatment: DMSO): 5.04 ± 0.16
protein stability index (treatment: MLN4924 1 uM, 8 h): 5.12 ± 0.17

DARVKRKLRGPEPAATEAYGSGDT [TBX6]
protein stability index (treatment: DMSO): 5.16 ± 0.3
protein stability index (treatment: MLN4924 1 uM, 8 h): 5.24 ± 0.22

HEEVYFEPSSSKDSDENSKPSVDT [MIA2]
protein stability index (treatment: DMSO): 5.62 ± 0.33
protein stability index (treatment: MLN4924 1 uM, 8 h): 5.48 ± 0.31

PCWKITLFVIVPVLGPLVALIICY [MOG]
protein stability index (treatment: DMSO): 2.87 ± 0.98
protein stability index (treatment: MLN4924 1 uM, 8 h): 2.88 ± 1.2

SGRPHLPGKKKIRWDPVRRRFIQS [KLHDC10]
protein stability index (treatment: DMSO): 3.35 ± 0.26
protein stability index (treatment: MLN4924 1 uM, 8 h): 3.21 ± 0.4

SSSSASADLLAGFGGSFMAPSPSP [SNAP91]
protein stability index (treatment: DMSO): 4.24 ± 0.1
protein stability index (treatment: MLN4924 1 uM, 8 h): 4.3 ± 0.24

DCQAGLNFADEDEAQAFRALVQEK [WAS]
protein stability index (treatment: DMSO): 5.17 ± 0.22
protein stability index (treatment: MLN4924 1 uM, 8 h): 5.08 ± 0.16

IIELLASDAGSPSLHKHLTIRLNI [PCDHGC5]
protein stability index (treatment: DMSO): 3.12 ± 0.48
protein stability index (treatment: MLN4924 1 uM, 8 h): 3.15 ± 0.6

DKSDQSLPNASADSLGGSQEMVQR [TRAF3IP2]
protein stability index (treatment: DMSO): 5.36 ± 0.17
protein stability index (treatment: MLN4924 1 uM, 8 h): 5.33 ± 0.34

LLPKSRENYLNRCMDQERLRREST [FCHO1]
protein stability index (treatment: DMSO): 3.31 ± 0.17
protein stability index (treatment: MLN4924 1 uM, 8 h): 3.21 ± 0.16

KVVSRAENLSVPVIGALLRFNQAI [LPCAT4]
protein stability index (treatment: DMSO): 2.15 ± 0.54
protein stability index (treatment: MLN4924 1 uM, 8 h): 2.18 ± 0.19

IDNAADLLIFGKELSAIGSDTTPL [SNX8]
protein stability index (treatment: DMSO): 3.22 ± 0.12
protein stability index (treatment: MLN4924 1 uM, 8 h): 3.18 ± 0.48

GARLVAACSAWLCPGLRLPGSLAG [AUH]
protein stability index (treatment: DMSO): 2.55 ± 1.2
protein stability index (treatment: MLN4924 1 uM, 8 h): 3.26 ± 0.84

SQPLDREATSHYIIELLASDAGSP [PCDHGC5]
protein stability index (treatment: DMSO): 3.33 ± 0.27
protein stability index (treatment: MLN4924 1 uM, 8 h): 3.52 ± 0.2

EFDSPHEDIVFETDHILESLYRDI [STX11]
protein stability index (treatment: DMSO): 3.59 ± 0.38
protein stability index (treatment: MLN4924 1 uM, 8 h): 3.58 ± 0.25

LEDLKDQIAQLEASLAAAKKQLAD [LMNB1]
protein stability index (treatment: DMSO): 5.3 ± 0.12
protein stability index (treatment: MLN4924 1 uM, 8 h): 5.21 ± 0.15

AKEVTIAKADTTSTVTPVPGQEKG [EHMT1]
protein stability index (treatment: DMSO): 5.36 ± 0.28
protein stability index (treatment: MLN4924 1 uM, 8 h): 5.52 ± 0.2

HNRVSKEDEDIYKLRHDLKKTSIT [PLK2]
protein stability index (treatment: DMSO): 4.02 ± 0.2
protein stability index (treatment: MLN4924 1 uM, 8 h): 4.12 ± 0.081

TAHMLGVRELRIAFREFDRDRDGR [CABP4]
protein stability index (treatment: DMSO): 3.68 ± 0.34
protein stability index (treatment: MLN4924 1 uM, 8 h): 3.7 ± 0.076

ADIMISFVRGDHRDNSPFDGPGGN [MMP1]
protein stability index (treatment: DMSO): 2.96 ± 0.31
protein stability index (treatment: MLN4924 1 uM, 8 h): 3.07 ± 0.36

FGFAQILIPGDAYTDYVATRWYRA [CDKL4]
protein stability index (treatment: DMSO): 2.31 ± 0.58
protein stability index (treatment: MLN4924 1 uM, 8 h): 2.84 ± 0.76

FLLKFLLVGDSDVGKGEILASLQD [RAB40B]
protein stability index (treatment: DMSO): 3.52 ± 0.49
protein stability index (treatment: MLN4924 1 uM, 8 h): 1.86 ± 0.28

PKNGRHAWIWHDCHRHYHSMEVFT [LOXL2]
protein stability index (treatment: DMSO): 2.28 ± 0.24
protein stability index (treatment: MLN4924 1 uM, 8 h): 2.4 ± 0.17

DMNGKSLHGKAIKVEQAKKPSFQS [RBMY1A1]
protein stability index (treatment: DMSO): 3.16 ± 0.2
protein stability index (treatment: MLN4924 1 uM, 8 h): 3.61 ± 0.2

NIGINGNHSLETCETTLFALRMAT [PTGFR]
protein stability index (treatment: DMSO): 2.34 ± 0.21
protein stability index (treatment: MLN4924 1 uM, 8 h): 2.33 ± 0.34

TVTSVSCCHGNTLLAVRSVTDEPV [NEK8]
protein stability index (treatment: DMSO): 3.21 ± 0.23
protein stability index (treatment: MLN4924 1 uM, 8 h): 3.14 ± 0.33

DSAQMQNGGPSTPPASPPADGSPP [ANKRD40]
protein stability index (treatment: DMSO): 5.24 ± 0.49
protein stability index (treatment: MLN4924 1 uM, 8 h): 5.23 ± 0.19

AITTDCLQILAYGNQESKLIILAS [CTNNB1]
protein stability index (treatment: DMSO): 2.85 ± 0.64
protein stability index (treatment: MLN4924 1 uM, 8 h): 2.81 ± 0.84

DNLKFSQEYESIDPGQQFTWEHSN [PTPRD]
protein stability index (treatment: DMSO): 4.57 ± 0.44
protein stability index (treatment: MLN4924 1 uM, 8 h): 4.57 ± 0.11

VKRLHEVGRTEPELLVAHAYTRYL [HMOX1]
protein stability index (treatment: DMSO): 2.2 ± 0.26
protein stability index (treatment: MLN4924 1 uM, 8 h): 2.4 ± 0.36

FFTVEFGLCKQDGQLRVFGAGLLS [TPH1]
protein stability index (treatment: DMSO): 2.73 ± 0.57
protein stability index (treatment: MLN4924 1 uM, 8 h): 3.09 ± 1.2

GKTMELFCQTDQTCICYLCMFQEH [TRIM29]
protein stability index (treatment: DMSO): 2.34 ± 0.064
protein stability index (treatment: MLN4924 1 uM, 8 h): 2.33 ± 0.25

TSVEECSQKGCLALSLLELLGFNL [CLCN6]
protein stability index (treatment: DMSO): 2.57 ± 0.68
protein stability index (treatment: MLN4924 1 uM, 8 h): 2.37 ± 0.15

HFLENLDKSRKGELLKKSDLQKDF [PRIM1]
protein stability index (treatment: DMSO): 3.52 ± 0.21
protein stability index (treatment: MLN4924 1 uM, 8 h): 3.95 ± 0.37

IEADRRRAQLHVQGLLHEAGSTDD [SPNS1]
protein stability index (treatment: DMSO): 4.87 ± 0.18
protein stability index (treatment: MLN4924 1 uM, 8 h): 5.1 ± 0.33

ALEEADKMFLRTREPALDGGFQMH [EID1]
protein stability index (treatment: DMSO): 3.75 ± 0.066
protein stability index (treatment: MLN4924 1 uM, 8 h): 3.64 ± 0.42

FIMDSCDELIPEYLNFIRGVVDSE [HSP90AB1]
protein stability index (treatment: DMSO): 2.37 ± 0.13
protein stability index (treatment: MLN4924 1 uM, 8 h): 2.32 ± 0.32

RFFLGDLCSRQDLYPALKGVNTVF [NSDHL]
protein stability index (treatment: DMSO): 2.19 ± 0.26
protein stability index (treatment: MLN4924 1 uM, 8 h): 2.14 ± 0.54

SNLQAMSTQMFQTKRCFRLAPTFS [SMG5]
protein stability index (treatment: DMSO): 2.17 ± 0.36
protein stability index (treatment: MLN4924 1 uM, 8 h): 2.2 ± 0.14

KSHFQNSREWSGKEKWWDGQRDRK [PBXIP1]
protein stability index (treatment: DMSO): 3.67 ± 0.26
protein stability index (treatment: MLN4924 1 uM, 8 h): 3.98 ± 0.31

NETQPIDLSGLPLQSSKNSYSFQN [RNF180]
protein stability index (treatment: DMSO): 3.95 ± 0.22
protein stability index (treatment: MLN4924 1 uM, 8 h): 3.89 ± 0.18

RAFVSIQEEMAEDPLTYKSRLMVV [RHOBTB2]
protein stability index (treatment: DMSO): 2.74 ± 0.39
protein stability index (treatment: MLN4924 1 uM, 8 h): 2.18 ± 0.4

ETDVWFSKQRKDFEGMAFLETEQG [GMCL1]
protein stability index (treatment: DMSO): 4.12 ± 0.62
protein stability index (treatment: MLN4924 1 uM, 8 h): 4.45 ± 0.16

DRETQEGKPPTAHLDRTSVSSLSE [ELOA2]
protein stability index (treatment: DMSO): 5.37 ± 0.34
protein stability index (treatment: MLN4924 1 uM, 8 h): 5.42 ± 0.21

QLTKASLKPRGCSKPPWRPPGGKL [SPACA9]
protein stability index (treatment: DMSO): 2.83 ± 0.29
protein stability index (treatment: MLN4924 1 uM, 8 h): 2.92 ± 0.079

AQLRDAVQSLQLSPRTRGSWSQPQ [RASAL3]
protein stability index (treatment: DMSO): 3.65 ± 0.15
protein stability index (treatment: MLN4924 1 uM, 8 h): 3.6 ± 0.35
